The values below come from article PMC8163800, “Extreme parsimony in ATP consumption by 20S complexes in the global disassembly of single SNARE complexes” (Nature Communications, 2021).

The labels stand for the following.
B1: NSF-SNAP tag (wild-type NSF with a C-terminal SNAP tag), labelled hexamer (enzyme, Chinese hamster)
chain: MAGRSMQAARCPTDELSLSNCAVVSEKDYQSGQHVIVRTSPNHKYIFTLRTHPSVVPGSVAFSLPQRKWAGLSIGQEIEVALYSFDKAKQCIGTMTIEIDFLQKKNIDSNPYDTDKMAAEFIQQFNNQAFSVGQQLVFSFNDKLFGLLVKDIEAMDPSILKGEPASGKRQKIEVGLVVGNSQVAFEKAENSSLNLIGKAKTKENRQSIINPDWNFEKMGIGGLDKEFSDIFRRAFASRVFPPEIVEQMGCKHVKGILLYGPPGCGKTLLARQIGKMLNAREPKVVNGPEILNKYVGESEANIRKLFADAEEEQRRLGANSGLHIIIFDEIDAICKQRGSMAGSTGVHDTVVNQLLSKIDGVEQLNNILVIGMTNRPDLIDEALLRPGRLEVKMEIGLPDEKGRLQILHIHTARMRGHQLLSADVDIKELAVETKNFSGAELEGLVRAAQSTAMNRHIKASTKVEVDMEKAESLQVTRGDFLASLENDIKPAFGTNQEDYASYIMNGIIKWGDPVTRVLDDGELLVQQTKNSDRTPLVSVLLEGPPHSGKTALAAKIAEESNFPFIKICSPDKMIGFSETAKCQAMKKIFDDAYKSQLSCVVVDDIERLLDYVPIGPRFSNLVLQALLVLLKKAPPQGRKLLIIGTTSRKDVLQEMEMLNAFSTTIHVPNIATGEQLLEALELLGNFKDKERTTIAQQVKGKKVWIGIKKLLMLIEMSLQMDPEYRVRKFLALLREEGASPLDFD
modifications: BG-Alexa647 or BG-DY549 dye on the SNAP tag
notes: N-ethylmaleimide sensitive factor (NSF), Chinese hamster, wild type; also called DY549-labeled NSF; SNAP-tag-labeled WT; source: expressed from pET28a in autoinduction LB medium, purified (Ni-NTA, Superdex 200); not shown: SNAP tag (GGSG linker), C-terminal, kept
B2: SNAP-tag-αSNAP labelled with BG-Alexa647 (natural protein, bovine, UniProt P81125 1-295, looked up)
chain: MDNSGKEAEAMALLAEAERKVKNSQSFFSGLFGGSSKIEEACEIYARAANMFKMAKNWSAAGSAFCQAAHVHLQLQSKHDAATCFVDAGNAFKKADPQEAINCLMRAIEIYTDMGRFTIAAKHHISIAEIYETELVDIEKAIAHYEQSADYYKGEESNSSANKCLLKVAGYAAQLEQYQKAIDIYEQVGTNAMDSPLLKYSAKDYFFKAALCHFCIDMLNAKLAVQKYEELFPAFSDSRECKRIKKLLEAHEEQNVDSYTEAVKEYDSISRLDQWLTTMLLRIKKTIQGDEEDLR
modifications: BG-Alexa647 dye on the SNAP tag
notes: alpha-soluble NSF attachment protein (αSNAP), bovine; also called SNAP-tag-fused αSNAPs; Alexa647-labeled αSNAP; source: expressed in LB medium with IPTG, purified (Ni-NTA, Superdex 200); not shown: SNAP tag (GGSGGSG linker), N-terminal, kept

Data set [1] concerns the molecule itself. The experiment in a line: SEC; Superdex 200 16/600 in NSF buffer (50 mM HEPES pH 7.4, 150 mM NaCl, 1 mM DTT, 1 mM ATP, 1 mM EDTA, 10% glycerol). For orientation: SEC sorts molecules by how far they enter the pores of the column.
In data set [2] the target is B1. Nature of the data set: single-molecule fluorescence co-localisation with counting of photobleaching steps (TIRF); SNARE vesicles (1:30,000 protein/lipid) held on NeutrAvidin; 100 nM SNAP-tag-αSNAP, then 1 nM Dylight549-labelled NSF with 1 mM ATP and 1 mM EDTA; H50N50 buffer. The conditions noted are these: both partners purified.

Turning to B1, the stoichiometry N (usually the number of molecules, sites or subunits per partner or assembly) in data set [1] worked out at 6.
For the molecule B2, in data set [2], the binding result is on record as “binds”.
